Experimental findings from patent US20120276119A1 (IMMUNOGEN, published 2012) are described below.

For assay [1], the target named is T1, Human CD37 (human, UniProt P11049 1-278).
T1 sequence: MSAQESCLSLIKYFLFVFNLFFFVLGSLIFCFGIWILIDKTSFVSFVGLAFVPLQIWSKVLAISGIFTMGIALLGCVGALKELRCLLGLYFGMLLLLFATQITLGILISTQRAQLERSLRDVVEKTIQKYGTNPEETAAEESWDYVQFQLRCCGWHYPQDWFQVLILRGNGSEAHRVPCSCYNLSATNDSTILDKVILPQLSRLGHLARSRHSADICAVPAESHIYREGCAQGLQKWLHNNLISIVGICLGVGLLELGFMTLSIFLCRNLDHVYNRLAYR
Kind of assay: cell-based or functional assay.

Assay [2] has as its target T1, Human CD37. Briefly: flow cytometry on human tumor cells expressing human CD37.
The next assay concerns the target T2, Murine CD37 (murine, UniProt Q61470 1-281).
T2 construct: Endogenous muCD37 on 300-19 murine pre-B cells and on wild type mouse spleen B cells; also called muCD37
T2 sequence: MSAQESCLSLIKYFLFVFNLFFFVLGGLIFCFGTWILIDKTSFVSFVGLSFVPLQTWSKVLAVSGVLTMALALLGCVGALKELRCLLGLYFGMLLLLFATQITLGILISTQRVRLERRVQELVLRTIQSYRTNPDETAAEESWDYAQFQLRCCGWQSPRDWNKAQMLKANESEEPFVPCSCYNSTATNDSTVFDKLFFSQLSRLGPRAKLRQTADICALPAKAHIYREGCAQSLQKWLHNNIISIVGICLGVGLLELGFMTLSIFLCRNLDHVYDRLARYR
Kind of assay: flow cytometry titration on 300-19 murine pre-B cells expressing muCD37; anti-muIgG-PE detection; EC50 of the curve taken as the apparent Kd. The method, then: Cells were then washed and counterstained with anti muIgG-PE conjugate (Jackson Immunoresearch, West Grove, Pa.) for 30 minutes at 4° C. The cells were finally washed, fixed in formalin and analyzed by flow cytometry using a FACSarray (BD Bioscience, San Jose, Calif.). The flow cytometry data were analyzed using FlowJo (Tree Star Inc., Ashland, Oreg.) and the geometric mean fluorescence intensity was plotted against the antibody concentration in a semi-log plot (FIG. 8). A dose-response curve was generated by non-linear regression and the EC50 value of the curve, which corresponds to the apparent dissociation constant (Kd) of the antibody, was calculated using GraphPad Prism (GraphPad Software Inc., La Jolla, Calif.).

B1: huCD37-3 (antibody, V domains shown)
VH: QVQVQESGPGLVAPSQTLSITCTVSGFSLTTSGVSWVRQPPGKGLEWLGVIWGDGSTNYHPSLKSRLSIKKDHSKSQVFLKLNSLTAADTATYYCAKGGYSLAHWGQGTLVTVSS
VL: DIQMTQSPSSLSVSVGERVTITCRASENIRSNLAWYQQKPGKSPKLLVNVATNLADGVPSRFSGSGSGTDYSLKINSLQPEDFGTYYCQHYWGTTWTFGQGTKLEIKR
As for B1, the “in vitro depletion of B-cells, whole human blood, 10 µg/mL, one donor” value (shortened to “in vitro depletion of B-cells”) in the assay with Human CD37 [1] is ~40%.

B2: huCD37-3-SMCC-DM1 (antibody, V domains shown)
VH: QVQVQESGPGLVAPSQTLSITCTVSGFSLTTSGVSWVRQPPGKGLEWLGVIWGDGSTNYHPSLKSRLSIKKDHSKSQVFLKLNSLTAADTATYYCAKGGYSLAHWGQGTLVTVSS
VL: DIQMTQSPSSLSVSVGERVTITCRASENIRSNLAWYQQKPGKSPKLLVNVATNLADGVPSRFSGSGSGTDYSLKINSLQPEDFGTYYCQHYWGTTWTFGQGTKLEIKR
modifications: DM1 maytansinoid linked via SMCC; sites, chain and drug load in the assay not stated
In the case of B2, in the assay with Human CD37 [1], the “EC50 of in vitro B-cell depletion, purified human PBMCs, two donors” value fell in the range of 0.04 to 0.075 µg/mL and the “in vitro depletion of B-cells” value was ~40%.

B3: anti-muCD37 monoclonal antibody clone 252-3 (antibody, mouse IgG2a, V domains shown)
VH: EVQVVESGGDLVKPGGSLKLSCAASGFTFSSYGMSWVRQTPDKRLEWVATISSGGSYTYSPDSVKGRFTISRDNAKKTLYLQMSSLKSEDTAMYYCARHSYYDTSVDYWGQGTSVTVSS
VL: DIQMTQTTSSLSASLGDRVTISCRASQDISNYLNWYQQKPDGTVKLLIYYTSKLHSGVPSRFSGSGSGTDYSLTISNLEQEDIATYFCQQGNALPWTFGGGTKLELKR
With B3, the binding result with Human CD37 [2] is recorded as “no binding”. Besides, in the assay with Murine CD37, the Kd was 14 nM.

B4: huCD37-50 (antibody, human IgG1, kappa, V domains shown)
VH: QVQLQESGPGLLKPSQSLSLTCTVSGYSITSGFAWHWIRQHPGNKLEWMGYILYSGSTVYSPSLKSRISITRDTSKNHFFLQLNSVTAADTATYYCARGYYGYGAWFAYWGQGTLVTVSA
VL: EIVLTQSPATMSASPGERVTMTCSATSSVTYMHWYQQKPGQSPKRWIYDTSNLPYGVPARFSGSGSGTSYSLTISSMEAEDAATYYCQQWSDNPPTFGQGTKLEIKR
For the molecule B4, the “in vitro depletion of B-cells” value with Human CD37 [1] is ~40%.

B5: huCD37-50-SMCC-DM1 (antibody, human IgG1, kappa, V domains shown)
VH: QVQLQESGPGLLKPSQSLSLTCTVSGYSITSGFAWHWIRQHPGNKLEWMGYILYSGSTVYSPSLKSRISITRDTSKNHFFLQLNSVTAADTATYYCARGYYGYGAWFAYWGQGTLVTVSA
VL: EIVLTQSPATMSASPGERVTMTCSATSSVTYMHWYQQKPGQSPKRWIYDTSNLPYGVPARFSGSGSGTSYSLTISSMEAEDAATYYCQQWSDNPPTFGQGTKLEIKR
modifications: DM1 maytansinoid linked via SMCC; sites, chain and drug load in the assay not stated
For the molecule B5, in the assay with Human CD37 [1], the “in vitro depletion of B-cells” value was ~40%.
